In PMC3149649, “Evidence for a Two-Metal-Ion Mechanism in the Cytidyltransferase KdsB, an Enzyme Involved in Lipopolysaccharide Biosynthesis” (PLoS ONE, 2011):

Molecular target: the molecule itself
Experiment: SEC; analytical gel filtration chromatography of purified AA-LCKS; conditions not given

B1: LPS-specific CMP-Kdo synthetase (KdsB) from Aquifex aeolicus (enzyme)
chain: MRRAVIIPARLGSTRLKEKPLKNLLGKPLIRWVVEGLVKTGERVILATDSERVKEVVEDLCEVFLTPSDLPSGSDRVLYVVRDLDVDLIINYQGDEPFVYEEDIKLIFRELEKGERVVTLARKDKEAYERPEDVKVVLDREGYALYFSRSPIPYFRKNDTFYPLKHVGIYGFRKETLMEFGAMPPSKLEQIEGLEQLRLLENGIKIKVLITENYYHGVDTEEDLKIVEEKLKNL
notes: CMP-Kdo synthetase KdsB (EC 2.7.7.38) of Aquifex aeolicus; the structure describes residues 2-234 (N-terminal domain 2-91 and 220-234, C-terminal domain 100-210); monomer 27 kDa by SDS-PAGE; No tag is mentioned; In the crystal the protein carries CTP and two Mg2+ ions; also called AA-LCKS; CKS
  stoichiometry N: 2
